What was measured:
[1] = molecular target: T1, heat-denatured OVA (dOVA), P01012
T1 chain: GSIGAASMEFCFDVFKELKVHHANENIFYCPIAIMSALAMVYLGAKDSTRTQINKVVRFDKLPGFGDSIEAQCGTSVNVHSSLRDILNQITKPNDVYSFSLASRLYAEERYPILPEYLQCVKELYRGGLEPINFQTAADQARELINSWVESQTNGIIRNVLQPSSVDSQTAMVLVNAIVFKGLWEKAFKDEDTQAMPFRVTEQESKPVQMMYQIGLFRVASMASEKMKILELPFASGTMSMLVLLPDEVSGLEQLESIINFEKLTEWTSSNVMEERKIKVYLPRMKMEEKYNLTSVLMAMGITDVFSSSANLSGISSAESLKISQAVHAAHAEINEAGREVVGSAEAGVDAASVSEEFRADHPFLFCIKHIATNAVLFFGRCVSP

[2] = molecular target: reduced-alkylated MSA (alkyl-MSA), P07724
[3] = molecular target: T2, human fibrin α-chain(148-160) amyloid fragment with Lys157Gly mutation (FP13)
T2 chain: KRLEVDIDIGIRS

[4] = molecular target: Native MSA (nMSA), P07724
[5] = molecular target: heat-denatured MSA, P07724
[6] = molecular target: heat/acid denatured glucagon, P01275
[7] = molecular target: modified gelatin for infusion stored at 37° C.
[8] = molecular target: glycated hemoglobin (Hb-AGE), P69905
mIAPP = molecular target: T3, mIAPP
T3 sequence (P12968 38-74, species assumed, looked up): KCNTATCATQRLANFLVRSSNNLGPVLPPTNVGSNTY

[9] = molecular target: T4, non-amyloid fragment FP10 of human fibrin α-chain(148-157)
T4 chain: KRLEVDIDIK

[10] = molecular target: T5, freshly dissolved FP13 K157G
T5 chain: KRLEVDIDIGIRS

[11] = molecular target: human-modified gelatin (Gelofusine), stored at 4° C.
[12] = molecular target: Human amyloid-β (1-40) Dutch type

Chain of reduced-alkylated MSA (alkyl-MSA), P07724 (P07724 25-608): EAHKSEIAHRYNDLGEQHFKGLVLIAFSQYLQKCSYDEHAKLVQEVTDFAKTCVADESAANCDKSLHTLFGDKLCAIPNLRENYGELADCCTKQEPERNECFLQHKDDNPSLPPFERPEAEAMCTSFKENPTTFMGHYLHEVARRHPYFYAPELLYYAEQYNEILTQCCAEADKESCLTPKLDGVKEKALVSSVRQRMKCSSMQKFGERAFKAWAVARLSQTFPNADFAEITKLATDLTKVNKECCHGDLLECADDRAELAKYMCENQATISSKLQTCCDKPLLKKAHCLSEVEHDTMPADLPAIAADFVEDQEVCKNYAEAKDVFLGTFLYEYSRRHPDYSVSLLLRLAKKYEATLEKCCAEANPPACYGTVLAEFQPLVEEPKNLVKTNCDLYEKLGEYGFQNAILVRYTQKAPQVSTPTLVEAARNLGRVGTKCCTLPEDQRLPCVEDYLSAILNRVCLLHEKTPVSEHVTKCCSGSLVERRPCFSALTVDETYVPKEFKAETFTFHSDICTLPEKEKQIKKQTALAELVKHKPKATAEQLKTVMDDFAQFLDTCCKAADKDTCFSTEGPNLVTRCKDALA
Chain of Native MSA (nMSA), P07724 (P07724 25-608): as above
Chain of heat-denatured MSA, P07724 (P07724 25-608): as above
Chain of heat/acid denatured glucagon, P01275 (P01275 53-81): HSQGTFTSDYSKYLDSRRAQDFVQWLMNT
Chain of endostatin, P39060 (P39060 whole entry, looked up): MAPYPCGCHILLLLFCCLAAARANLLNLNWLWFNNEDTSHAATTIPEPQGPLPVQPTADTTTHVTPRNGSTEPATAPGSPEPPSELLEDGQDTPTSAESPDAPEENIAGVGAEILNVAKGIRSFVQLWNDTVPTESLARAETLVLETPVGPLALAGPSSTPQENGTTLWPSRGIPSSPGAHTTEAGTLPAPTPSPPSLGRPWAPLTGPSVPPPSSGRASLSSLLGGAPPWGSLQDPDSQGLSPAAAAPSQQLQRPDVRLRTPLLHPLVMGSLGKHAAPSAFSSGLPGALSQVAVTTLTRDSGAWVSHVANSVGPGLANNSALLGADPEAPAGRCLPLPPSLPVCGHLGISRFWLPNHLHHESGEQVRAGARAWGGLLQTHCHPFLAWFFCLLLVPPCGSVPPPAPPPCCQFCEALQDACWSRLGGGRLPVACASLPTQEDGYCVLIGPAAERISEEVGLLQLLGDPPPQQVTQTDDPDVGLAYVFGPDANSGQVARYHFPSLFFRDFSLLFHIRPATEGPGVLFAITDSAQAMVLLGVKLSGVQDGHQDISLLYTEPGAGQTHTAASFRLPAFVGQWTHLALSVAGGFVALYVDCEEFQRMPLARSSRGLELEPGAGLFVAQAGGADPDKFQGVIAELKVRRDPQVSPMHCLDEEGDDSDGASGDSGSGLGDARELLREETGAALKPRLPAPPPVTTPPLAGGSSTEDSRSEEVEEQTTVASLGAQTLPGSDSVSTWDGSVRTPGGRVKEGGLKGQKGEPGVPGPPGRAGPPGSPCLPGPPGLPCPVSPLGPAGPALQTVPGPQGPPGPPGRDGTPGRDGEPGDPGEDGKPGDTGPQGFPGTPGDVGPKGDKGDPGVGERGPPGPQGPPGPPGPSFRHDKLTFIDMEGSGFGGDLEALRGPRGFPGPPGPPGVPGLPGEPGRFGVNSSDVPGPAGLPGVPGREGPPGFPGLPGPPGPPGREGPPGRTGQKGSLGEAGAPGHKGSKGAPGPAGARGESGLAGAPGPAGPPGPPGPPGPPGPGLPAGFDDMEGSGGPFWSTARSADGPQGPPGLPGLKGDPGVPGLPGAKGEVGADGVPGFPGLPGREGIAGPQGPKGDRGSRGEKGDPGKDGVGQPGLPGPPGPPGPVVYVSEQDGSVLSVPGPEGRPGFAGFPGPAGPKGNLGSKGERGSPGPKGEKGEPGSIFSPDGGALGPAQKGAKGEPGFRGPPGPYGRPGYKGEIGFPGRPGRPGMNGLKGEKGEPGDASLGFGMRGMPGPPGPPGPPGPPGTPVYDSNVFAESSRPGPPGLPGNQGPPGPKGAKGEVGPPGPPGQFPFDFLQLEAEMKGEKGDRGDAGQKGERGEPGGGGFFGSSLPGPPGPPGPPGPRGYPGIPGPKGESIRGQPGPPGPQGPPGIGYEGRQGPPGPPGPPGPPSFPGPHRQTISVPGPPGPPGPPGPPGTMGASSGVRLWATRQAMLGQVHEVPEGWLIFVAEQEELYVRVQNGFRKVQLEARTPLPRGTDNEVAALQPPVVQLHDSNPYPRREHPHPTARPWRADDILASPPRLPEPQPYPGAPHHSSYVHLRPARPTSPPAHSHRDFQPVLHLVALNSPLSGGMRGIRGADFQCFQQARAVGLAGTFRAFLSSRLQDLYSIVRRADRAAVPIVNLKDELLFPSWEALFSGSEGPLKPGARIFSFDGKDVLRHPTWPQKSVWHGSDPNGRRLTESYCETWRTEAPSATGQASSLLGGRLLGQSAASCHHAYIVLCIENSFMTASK
Chain of native Hb, P69905 (P69905 2-142, chain 1 of 2): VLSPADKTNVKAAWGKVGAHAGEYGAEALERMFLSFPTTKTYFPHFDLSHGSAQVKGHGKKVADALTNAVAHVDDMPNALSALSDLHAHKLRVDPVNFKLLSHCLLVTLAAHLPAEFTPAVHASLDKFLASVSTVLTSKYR
Chain of native Hb, P69905 (chain, as listed by the source, chain 2 of 2): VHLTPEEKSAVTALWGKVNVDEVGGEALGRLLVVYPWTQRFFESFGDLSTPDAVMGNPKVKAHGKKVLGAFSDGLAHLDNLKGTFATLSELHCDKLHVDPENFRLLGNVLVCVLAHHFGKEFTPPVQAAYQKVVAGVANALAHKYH
Chain of glycated hemoglobin (Hb-AGE), P69905 (P69905 2-142, chain 1 of 2): as the sequence (P69905 2-142, chain 1 of 2) above
Chain of glycated hemoglobin (Hb-AGE), P69905 (chain, as listed by the source, chain 2 of 2): as the sequence (chain, as listed by the source, chain 2 of 2) above

B1: tissue-type plasminogen activator (tPA) (protein)
chain: SYQVICRDEKTQMIYQQHQSWLRPVLRSNRVEYCWCNSGRAQCHSVPVKSCSEPRCFNGGTCQQALYFSDFVCQCPEGFAGKCCEIDTRATCYEDQGISYRGTWSTAESGAECTNWNSSALAQKPYSGRRPDAIRLGLGNHNYCRNPDRDSKPWCYVFKAGKYSSEFCSTPACSEGNSDCYFGNGSAYRGTHSLTESGASCLPWNSMILIGKVYTAQNPSAQALGLGKHNYCRNPDGDAKPWCHVLKNRRLTWEYCDVPSCSTCGLRQYSQPQFRIKGGLFADIASHPWQAAIFAKHRRSPGERFLCGGILISSCWILSAAHCFQERFPPHHLTVILGRTYRVVPGEEEQKFEVEKYIVHKEFDDDTYDNDIALLQLKSDSSRCAQESSVVRTVCLPPADLQLPDWTECELSGYGKHEALSPFYSERLKEAHVRLYPSSRCTSQHLLNRTVTDNMLCAGDTRSGGPQANLHDACQGDSGGPLVCLNDGRMTLVGIISWGLGCGQKDVPGVYTKVTNYLDWIRDNMRP
Plg-activation assay [1]: The presence of the cross-β structure conformation was established with ThT fluorescence and Plg-activation assays and by TEM imaging
tPA activation assay [2]: Although heat-denatured MSA and alkylated MSA enhance ThT fluorescence to a similar extent, they differ in tPA activating potential
chromogenic Plg-activation assay [3]: The positive control was amyloid fibrin peptide FP13
Plg-activation assay [4]: native MSA enhanced ThT fluorescence to some extent, but this was not reflected by stimulation of tPA activation
tPA activation assay [5]: Although heat-denatured MSA and alkylated MSA enhance ThT fluorescence to a similar extent, they differ in tPA activating potential
tPA activation assay (native glucagon, P01275): at high glucagon concentration, also native glucagon has some tPA activating potential
tPA activation assay [6]: a potent activator of tPA was obtained
tPA activation assay (endostatin, P39060): the absence of tPA activating properties in 100 µg ml^-1 endostatin

B2: factor XII (protein)
chain: IPPWEAPKEHKYKAEEHTVVLTVTGEPCHFPFQYHRQLYHKCTHKGRPGPQPWCATTPNFDQDQRWGYCLEPKKVKDHCSKHSPCQKGGTCVNMPSGPHCLCPQHLTGNHCQKEKCFEPQLLRFFHKNEIWYRTEQAAVARCQCKGPDAHCQRLASQACRTNPCLHGGRCLEVEGHRLCHCPVGYTGAFCDVDTKASCYDGRGLSYRGLARTTLSGAPCQPWASEATYRNVTAEQARNWGLGGHAFCRNPDNDIRPWCFVLNRDRLSWEYCDLAQCQTPTQAAPPTPVSPRLHVPLMPAQPAPPKPQPTTRTPPQSQTPGALPAKREQPPSLTRNGPLSCGQRLRKSLSSMTRVVGGLVALRGAHPYIAALYWGHSFCAGSLIAPCWVLTAAHCLQDRPAPEDLTVVLGQERRNHSCEPCQTLAVRSYRLHEAFSPVSYQHDLALLRLQEDADGSCALLSPYVQPVCLPSGAARPSETTLCQVAGWGHQFEGAEEYASFLQEAQVPFLSLERCSAPDVHGSSILPGMLCAGFLEGGTDACQGDSGGPLVCEDQAAERRLTLQGIISWGSGCGDRNKPGVYTDVAYYLAWIREHTVS
chromogenic kallikrein activity assay [7]: Only gelatin kept at 37 °C activated factor XII
factor XII/kallikrein chromogenic assay (TTR11): cross-β structure conformation rich peptides LAM12 and TTR11 stimulate factor XII activation, to a similar extent as kaolin
auto-activation of purified factor XII, substrate S-2222 (native Hb, P69905): Freshly dissolved native Hb, ultracentrifuged for one hour at 100,000*g, and freshly dissolved FP13 K157G did not or hardly auto-activate factor XII (not shown)
factor XII/kallikrein chromogenic assay (LAM12): cross-β structure conformation rich peptides LAM12 and TTR11 stimulate factor XII activation, to a similar extent as kaolin
auto-activation of purified factor XII, substrate S-2222 [3]: FP13 K157G and Hb-AGE have a potency to induce auto-activation that was similar to the established surface activator DXS500k
conversion of Chromozym PK, upon formation of kallikrein from prekallikrein by activated factor XII [3]: amyloid-like peptide aggregates of FP13 and Aβ stimulate the activation of factor XII
auto-activation of purified factor XII, substrate S-2222 [8]: FP13 K157G and Hb-AGE have a potency to induce auto-activation that was similar to the established surface activator DXS500k
conversion of Chromozym PK, upon formation of kallikrein from prekallikrein by activated factor XII (mIAPP): non-amyloid controls FP10 and mIAPP do not activate factor XII
conversion of Chromozym PK, upon formation of kallikrein from prekallikrein by activated factor XII [9]: non-amyloid controls FP10 and mIAPP do not activate factor XII
auto-activation of purified factor XII, substrate S-2222 [10]: Freshly dissolved native Hb, ultracentrifuged for one hour at 100,000*g, and freshly dissolved FP13 K157G did not or hardly auto-activate factor XII (not shown)
chromogenic kallikrein activity assay [11]: Only gelatin kept at 37 °C activated factor XII
auto-activation of purified factor XII, substrate S-2222 [12]: the potency of the Aβ(1-40) E22Q was somewhat lower
conversion of Chromozym PK, upon formation of kallikrein from prekallikrein by activated factor XII [12]: amyloid-like peptide aggregates of FP13 and Aβ stimulate the activation of factor XII

Source: patent publication US8114832
